The source of these data is patent US7109170B2, “Region of factor IXa protease domain that interacts with factor VIIIa and methods therefor” (Saint Louis University, priority 1999, dated 2006).

The assay has as its target factor X (Homo sapiens, UniProt P00742). Description: factor X activation by IXa proteins, Ca2+ and VIIIa, no phospholipid. The conditions noted are these: 14 nM VIIIa, 400 nM factor X. It counts as biochemical. Set-up: Normal human plasma factor IX (IXNP) and factor X were isolated as described in Bajaj and Birktoft; from tissue; host or cells: human plasma (factor X); factor VIII obtained from Dr. Leon Hoyer, American Red Cross. As for the experimental part:
The ability of each activated mutant to activate factor X in the presence and absence of phospholipid and factor VIIIa was determined as follows. The activation was carried out at 37° C. in a 50 μl reaction volume, in TBS/BSA pH 7.4, for various time periods. At the end of the incubation time period, each reaction mixture received 1 μl of 0.5 M EDTA to stop further generation of factor Xa. A 40 μL aliquot was then added to 0.1 ml quartz cuvette containing S-2222 in 75 μL of TBS/BSA, pH 7.4. The final concentration of S-2222 was 100 μM. The p-nitroaniline release was measured continuously (ΔA405/min) for up to 20 min (Sabharwal et al., 1995 supra; Sabharwal et al., 1997, supra). Factor Xa generated was calculated from a standard curve constructed using factor Xa prepared from insolubilized Russell's viper venom.
Factor X activation measurements were made under four experimental regimes. In one, Ca^2+ and phospholipid were present. In this system activation was carried out for 5–15 minutes and the concentration of each IXa protein was 20 nM, phospholipid was 25 μM, and factor X was 100 nM. In the second regime, Ca^2+, phospholipid and factor VIIIa were present. […] In the third regime, only Ca^2+ was present. Here, activation was carried out for 2–20 min and concentration of each IXa protein was 400 nM and factor X was 1 μM. Finally, in the fourth regime, Ca^2+ and VIIIa were present. Here, activation was carried out for 15–120 sec and the concentration of each IXa protein was 2 μM, VIIIa was 14 nM, and factor X was 400 nM.
In all of the above factor X activation experiments, the incubation times chosen were those in which the factor Xa generated was always less than 10 nM. This precautionary measure was taken to prevent activation of factor X by the generated factor Xa (see, e.g., Link. and Castellino, 1982, Arch Biochem. Biophys. 215, 215–221). Further, in those incubation mixtures which contained […], control experiments were also performed in which factor VIIIa was omitted. […] In the presence of factor VIIIa, 10 μM phospholipid was used based upon previous observations (Mathur et al., 1997, supra; van Dieijen et al., 1981, J. Biol. Chem. 256, 3433–3442). The concentrations of factor X selected for each set of reaction conditions are those which are below or at the Km values (van Dieijen et al., supra; Fay and Koshibu, 1998, J Biol. Chem. 273, 19049–19054). In this region of the Michaelis-Menton curve, the rate of formation of factor Xa is proportional to the substrate factor X and therefore to the affinity of the factor IXa enzyme for factor X.

Sequence of factor X (P00742 183-488 limits assumed): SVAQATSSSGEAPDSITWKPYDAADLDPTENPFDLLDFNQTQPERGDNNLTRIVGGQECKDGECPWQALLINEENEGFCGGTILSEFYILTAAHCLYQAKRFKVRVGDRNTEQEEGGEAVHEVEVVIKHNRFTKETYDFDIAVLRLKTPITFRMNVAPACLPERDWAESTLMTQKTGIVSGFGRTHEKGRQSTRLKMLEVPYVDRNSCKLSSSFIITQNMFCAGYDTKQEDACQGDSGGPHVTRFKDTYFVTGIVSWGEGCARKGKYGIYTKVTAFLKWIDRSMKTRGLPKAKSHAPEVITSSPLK
Sequence of factor X (P00742 41-179 limits assumed): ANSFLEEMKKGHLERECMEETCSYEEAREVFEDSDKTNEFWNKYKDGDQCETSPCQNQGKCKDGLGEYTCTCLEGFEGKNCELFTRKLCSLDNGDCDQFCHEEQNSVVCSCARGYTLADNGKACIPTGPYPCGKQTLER
Sequence of factor X (P00451 20-759 partner limits assumed): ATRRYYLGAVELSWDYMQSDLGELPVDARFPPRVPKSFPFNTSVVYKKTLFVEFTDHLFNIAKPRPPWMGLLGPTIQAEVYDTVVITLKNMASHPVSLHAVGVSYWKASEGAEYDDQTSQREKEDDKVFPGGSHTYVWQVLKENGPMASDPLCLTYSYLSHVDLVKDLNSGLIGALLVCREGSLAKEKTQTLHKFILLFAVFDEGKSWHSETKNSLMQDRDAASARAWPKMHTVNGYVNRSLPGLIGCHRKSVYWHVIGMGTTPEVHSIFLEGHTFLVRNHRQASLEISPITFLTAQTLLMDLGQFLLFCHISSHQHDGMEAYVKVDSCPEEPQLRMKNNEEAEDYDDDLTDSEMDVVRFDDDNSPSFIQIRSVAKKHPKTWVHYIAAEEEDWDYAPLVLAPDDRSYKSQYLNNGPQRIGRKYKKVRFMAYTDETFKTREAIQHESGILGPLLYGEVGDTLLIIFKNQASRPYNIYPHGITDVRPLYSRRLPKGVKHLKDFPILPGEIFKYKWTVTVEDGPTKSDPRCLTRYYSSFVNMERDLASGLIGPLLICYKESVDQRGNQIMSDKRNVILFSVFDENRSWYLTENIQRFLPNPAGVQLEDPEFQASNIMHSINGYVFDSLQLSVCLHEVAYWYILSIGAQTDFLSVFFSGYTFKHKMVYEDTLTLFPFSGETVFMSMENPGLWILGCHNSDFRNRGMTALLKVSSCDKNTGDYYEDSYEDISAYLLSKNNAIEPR
Sequence of factor X (P00451 1668-2351 partner limits assumed): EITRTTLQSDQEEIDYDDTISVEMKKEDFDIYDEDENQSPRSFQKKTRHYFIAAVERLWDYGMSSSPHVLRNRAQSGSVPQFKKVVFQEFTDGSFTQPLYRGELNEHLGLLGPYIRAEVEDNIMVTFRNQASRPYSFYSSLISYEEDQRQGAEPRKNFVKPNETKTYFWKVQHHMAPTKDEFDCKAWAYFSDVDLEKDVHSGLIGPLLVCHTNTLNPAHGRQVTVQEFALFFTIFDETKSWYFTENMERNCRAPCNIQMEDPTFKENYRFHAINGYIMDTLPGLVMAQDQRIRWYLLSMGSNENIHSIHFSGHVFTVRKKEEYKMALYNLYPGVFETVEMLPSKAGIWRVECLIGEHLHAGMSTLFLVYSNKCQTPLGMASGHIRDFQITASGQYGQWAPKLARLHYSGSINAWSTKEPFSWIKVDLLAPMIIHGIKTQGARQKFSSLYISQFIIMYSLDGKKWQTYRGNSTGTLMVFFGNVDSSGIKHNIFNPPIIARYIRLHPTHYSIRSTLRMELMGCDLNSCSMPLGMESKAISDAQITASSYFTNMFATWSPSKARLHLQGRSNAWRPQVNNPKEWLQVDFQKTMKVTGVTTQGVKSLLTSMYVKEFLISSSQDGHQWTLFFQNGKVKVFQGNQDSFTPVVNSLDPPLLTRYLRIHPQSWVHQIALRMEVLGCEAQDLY

Regarding “IXaV331A: activated factor IX mutant V331A”, the “X-activation rate, PL-minus system” value was determined as 0.54 ± 0.02 nM/min.
